Experiment [1] addresses T1, epitope peptide from the human TREM2 stalk region (DAGDLWFPG) (human).
T1 construct: also called human TREM2 peptide fragment
T1 peptide: DAGDLWFPG
In words: ELISA, coated epitope peptide SEQ ID NO: 16. The procedure: (§1) Anti-TREM2 antibody binding to the extracellular domain of TREM2 (ecTREM2) or to the human or mouse peptide fragment of the stalk region of TREM2 were quantified in an ELISA assay. All procedures were performed at room temperature and incubations were done on a microtiter plate shaker. ELISA plate was coated with 60 μl/well (final concentration 0.5 μg/ml) of the according ligand (ecTREM2 (Hölzel Diagnostika, 11084-H08H) or human or mouse TREM2 peptide fragment) in coating buffer (NaHCO₃) for 1 h. The coated plate was washed three times with PBS-T (PBS, 0.1% Tween-20), blocked with 100 μl/well of blocking solution (PBS-T, 3% milk powder) for 1 h, and washed again. Antibodies were pre-diluted 1:10 in PBS and set to a concentration of 1 μg/ml. A dilution series was performed with dilution steps of 1:3 and 1:10. 50 μl/well of diluted AB were transferred to the blocked ELISA plate and incubated for 1 h. The plate was washed three times with PBS-T and incubated with anti-human-Strep-POD (Jackson Immunoresearch, #109-035-098) diluted in PBS-T 1:10000 for 1 h. After washing three times, bound POD was detected by incubation with 100 μl/well of TMB substrate (Thermo Scientific, #34029) until a maximal optical density (OD) of about 1 to 2 was reached. Finally, the colorimetric reaction was stopped with 100 μl/well stopping solution (1M H₂SO₄) and the OD determined at a wavelength of 450 nm with a reference wavelength of 595 nm in a plate reader (SpectraMax i3xl).

Experiment [2] concerns the target T2, extracellular domain of human TREM2 (ecTREM2), Hölzel Diagnostika 11084-H08H (human, UniProt Q9NZC2 19-174).
T2 construct: extracellular domain; also called human ecTREM2; ecTREM2 domain
T2 sequence (looked up): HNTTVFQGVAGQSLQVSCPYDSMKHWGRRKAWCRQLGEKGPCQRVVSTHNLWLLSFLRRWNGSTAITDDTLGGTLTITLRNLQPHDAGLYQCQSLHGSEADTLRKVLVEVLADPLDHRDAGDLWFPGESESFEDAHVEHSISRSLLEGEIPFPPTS
In words: ELISA, coated ecTREM2. How it is done:
as §1
(§2) We determined the binding affinity of all antibody clones including M07 as well as of the control antibody H01 and negative control (not shown here), to ecTREM2 by an ELISA-based binding assay (FIG. 2).
On the technique in general: An ELISA detects its analyte on a solid surface through an enzyme-linked reagent.

Experiment [3] deals with T3, human TREM2 (hTREM2) on cells (human, UniProt Q9NZC2 19-230).
T3 sequence (looked up): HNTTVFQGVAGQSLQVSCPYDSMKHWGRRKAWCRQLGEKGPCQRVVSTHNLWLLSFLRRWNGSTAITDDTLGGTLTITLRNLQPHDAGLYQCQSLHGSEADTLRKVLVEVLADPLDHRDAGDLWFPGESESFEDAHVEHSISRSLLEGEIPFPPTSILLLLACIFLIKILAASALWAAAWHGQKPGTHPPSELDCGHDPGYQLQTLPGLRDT
In words: cell-based or functional assay.

Experiment [4] concerns the target T3, human TREM2 (hTREM2) on cells. In words: cell-based or functional assay. This is another data set of the same source.
The target is the same in experiment [5]. In words: printed with the p-SYK titration curve of M07 on HEK293-Flp-In hTREM2/hDAP12 cells (FIG. 6B); how it was derived is not told. The procedure:
Phosphorylated SYK (p-Syk) was measured using the AlphaLISA SureFire Ultra p-SYK Assay Kit (PerkinElmer, ALSU-PSYK-A-HV) following the manufacturer's instructions. Briefly, HEK293 cells overexpressing human TREM2 and human DAP12 were plated in 50 μl media at a density of 50,000 cells/well in a 96-well plate and incubated overnight at 37° C. in a cell culture incubator. The next day medium was removed and 50 μl of antibody diluted in medium was added to the cells. Following an incubation for 5 min at 37° C. treatment solutions were removed and cells were lysed with 50 μl lysis buffer supplemented with phosphatase inhibitor (VWR) for 10 min on a plate shaker (~350 rpm). 30 μl of lysate were then used for further incubation steps with acceptor and donor beads (each for 1 h) following analysis using a CLARIOstar^Plus Plate Reader (BMG Labtech).

In experiment [6] the target is T2, extracellular domain of human TREM2 …. In words: ELISA, coated ecTREM2 (0.5 µg/ml), antibody dilution series. The procedure: as §1, with “A dilution series was performed with dilution steps of 1:3 and 1:10. 50 μl/well of diluted AB were transferred to the blocked ELISA plate and incubated for 1 h. The plate was washed three times with PBS-T and incubated with anti-human-Strep-POD (Jackson Immunoresearch, #109-035-098) diluted in PBS-T 1:10000 for 1 h.” left out
as §2

Experiment [7] addresses T1, epitope peptide from the human TREM2 …. In words: ELISA, coated epitope peptide (0.5 µg/ml), antibody dilution series. The procedure:
as §1, with “The plate was washed three times with PBS-T and incubated with anti-human-Strep-POD (Jackson Immunoresearch, #109-035-098) diluted in PBS-T 1:10000 for 1 h.” left out

Numbering of substitutions follows the chain as printed.

In general, EC50 refers to the concentration that produces a half-maximal response. The Kd is a measure of binding affinity in units of concentration. A low value points to higher affinity.

B1: antibody H08 (clone H08), fully human IgG1-LALA (antibody, V domains shown)
VH: EVQLVQSGGGLVQPGGSLRLSCAASGFTFSSYAMSWVRQAPGKGLEWVSAISGSGGSTYYADSVKGRFTISRDNAKRSLYLQMNDLRVEDTAVYYCARTRTNVFDFWGQGTMVTVSS
VL: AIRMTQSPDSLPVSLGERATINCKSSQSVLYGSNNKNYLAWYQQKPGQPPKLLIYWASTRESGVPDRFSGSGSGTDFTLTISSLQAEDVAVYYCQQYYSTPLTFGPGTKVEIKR
As to B1, the EC50 in experiment [1] is 0.832 nM; in experiment [2] it was 0.19 nM. Besides, in experiment [3], the “Mean values of fold increase over baseline (p-SYK AlphaLISA, 40 µg/ml antibody, HEK293-Flp-In hTREM2/hDAP12)” value stood at 3.22 fold.

B2: antibody M07 (clone M07), fully human anti-hTREM2 IgG1-LALA-TFN (antibody, V domains shown)
VH: EVQLLESGGGLVQPGGSLRLTCAASGFTFSSYAMSWVRQAPGKGLEWVSVINGRGSNTYYADSVKGRFTITRDNSKNTLYLEMNSLRAEDTAVYYCARVRAYSGPSYGFDYWGQGTLVTVSS
VL: DIQLTQSPLSLSASAGDRVTITCRASQSIRDYLGWYQQKPGKAPKLLIYAASKLQSGVPSRFSGSGSGTDFTLTISSLQPEDFATYYCQQSYHTPPFTFGQGTKVEIKR
notes: leaders are cleaved off; also called anti-hTREM2 antibody M07; MO7
Consider B2, for which, in experiment [4], the “EC50 of p-SYK signaling titration in HEK293-Flp-In hTREM2/hDAP12” value was 4.39 nM and the “SYK phosphorylation, fold increase” value is at most 60 fold. In experiment [5], this molecule displayed a Kd of 2.19 nM. In experiment [1], this molecule yielded an EC50 of 0.335 nM. The same molecule displayed an EC50 in experiment [2] of 0.204 nM. Besides, the “Mean values of fold increase over baseline (p-SYK AlphaLISA, 40 µg/ml antibody, HEK293-Flp-In hTREM2/hDAP12)” value in experiment [3] turned out to be 36.1 fold.

B3: antibody M03 (clone M03), fully human IgG1-LALA (antibody, V domains shown)
VH: EVQLVQSGGGLVQPGGSLRLSCAASGFTFSSYGITWVRQAPGKGLEWVSFISGGGSYTYYADSVKGRFTISRDNAKRTLYLQMNSLRAEDTAVYYCARSGRAYFDYWGQGTLVTVSS
VL: DIRLTQPPSVSGAPGQRVTISCSGSSSNIGSLFVSWYQQLPGTAPKLLIYSNSQHPSGVPDRFSGSKSGTSASLAITGLQAEDEADYYCSAYDQFSNSVVFGGGTKLTVLG
Consider B3, for which the figures for the EC50 in experiment [1] and in experiment [2] were 0.329 nM and 0.35 nM, respectively. Also, in experiment [3], the “Mean values of fold increase over baseline (p-SYK AlphaLISA, 40 µg/ml antibody, HEK293-Flp-In hTREM2/hDAP12)” value was 9.39 fold.

B4: antibody M05 (clone M05), fully human IgG1-LALA (antibody, V domains shown)
VH: EVQLLESGGGLVQPGGSLRLSCAASGFTFSSNAMTWVRQAPGKGLEWVSVIGSSGSYTYYADSVKGRFTISRDNSKNTLYLQMNSLRAEDTAVYYCARSGTTGFDYWGQGTLVTVSS
VL: B3 VL with R3V, L4M, G12V, A13T, S23R, G24S, G111R
Turning to B4, the binding result in experiment [6] and in experiment [7] was “no binding” each time. The “Mean values of fold increase over baseline (p-SYK AlphaLISA, 40 µg/ml antibody, HEK293-Flp-In hTREM2/hDAP12)” value in experiment [3] is 1.07 fold.
